# Test results published in PMC10069166 (Heliyon, 2023).
# B1: 80R antibody (antibody, V domains shown)
# VH: EVQLVQSGGGVVQPGKSLRLSCAASGFAFSSYAMHWVRQAPGKGLEWVAVISYDGSNKYYADSVKGRFTISRDNSKNTLYLQMNSLRAEDTAVYYCARDRSYYLDYWGQGTLVTVSS
# VL: TTLTQSPATLSLSPGERATLSCRASQSVRSNLAWYQQKPGQAPRPLIYDASTRATGIPDRFSGSGSGTDFTLTISRLEPEDFAVYYCQQRSNWPPTFGQGTKVEVK
# Target: SARS-CoV-2 Spike protein (RBD, His & Avi tag) (SARS-CoV-2, wild type, UniProt P0DTC2)
# Test: BLI
binder,measurement,value
B1,binding result,no binding (tested: 20 nM and 10 nM)
